Results as given in the supplement of paper PMC10567573.

B1: MYL5 (parent)
chain: DVAGNLDYKALSYVITHGEEKEE
B2: PDZK1 (parent)
chain: FQAKKIPIVSSLADPLDTPPDSKE

Variants of: B1
Assay: protein stability index of a GFP-peptide fusion (GPS, HEK-293T) (PSI 1-6); higher = more stable
Settings: c terminus: native
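Note: lentivirally expressed fusions sorted by FACS into six bins by GFP to DsRed ratio, PSI derived from sequencing read proportions per bin multiplied by bin number.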

Protein stability index: each site, then its substitutions
N5: F 1.87; E 2.43; H 1.92; L 3.25; M 1.3; W 1.83; K 1.97
S12: Q 1.7; L 1.77; N 2.77; K 2.3; P 2.46; V 1.73; R 1.99; G 2.54; I 2.45
K9: F 2.23; L 2.75; V 2.67; M 1.6; H 1.53; S 1.56; T 2.18; G 1.98; P 1.95; R 1.35; D 2.57; C 3.09; N 2.01; Y 2.3
G18: P 1.12; S 1.49; A 1.45; N 2.11; C 1.68; L 1.69; E 2.1; R 2.43; D 2.61; H 1.7; F 1.88; M 2.07
A3: V 1.97; Y 2.15; T 2.21; L 2.31; W 3.06; N 1.54; E 2.1; D 1.87; C 1.29; Q 1.75; P 1.83; I 1.71; H 1.8; K 2.15
D7: P 1.83; K 3.18; H 2.83; R 1.69; S 2.5; N 1.91; G 2.02; T 1.57; E 2.29; Q 1.64; V 1.96; F 1.04; Y 2.1
K21: G 3.52; H 1.6; P 1.72; A 2.46; V 1.54; Y 1.79; Q 4.06; T 2.05; M 1.98; D 4.35; E 3.8; W 1.95; C 2.53
E19: K 3.27; M 1.08; T 3.2; L 2.9; D 2.23
V2: R 2.3; H 1.92; W 4.54; A 1.64; M 1.87; D 2.19; E 1.35; I 2.61; T 2; N 1.75; C 2.31; G 2.06; P 1.67; S 1.82; L 1.78
T16: C 1.53; E 1.99; K 2.65; Q 2.56; G 3.04; S 1.89; V 2.35; M 1.18; D 2.01; I 2.33; W 2.48; N 3.03; F 3.87; L 1.27

Variants of: B2
Assay: as above
Settings: c terminus: a fixed tail appended

Protein stability index of substitutions, site by site:
P19: V 3.54; F 2.9; I 3.55; A 3.43; L 3.2; H 4.01; Q 4.17; K 3.66; G 3.91; S 3.67; Y 3.81; R 3.56; C 3.53
P15: T 3.57; K 3.25; W 2.45; V 3.43; E 3.48; Y 3.32; G 4.12; C 3.55; R 3.73
P20: I 3.61; R 3.77; N 3.7; Q 3.73; D 4.28; C 3.94; Y 3.89; E 4.21; S 3.62; V 3.74
T18: R 3.6; W 3.86; F 3.55; D 3.68; I 3.75; K 3.81; A 3.59; C 3.46; S 3.53
S11: V 3.38
L16: A 3.85; E 4.07; S 4.13; F 2.89; I 3.91; V 3.91
D17: L 3.28
D14: R 3.81; Q 3.86
